Blank lines part the entries; values can stand above or below the binder they belong to.
Assays:
[1] = target: T1, recombinant human PD-1 protein (human, UniProt Q15116 25-167, limits assumed); test: ELISA on recombinant human PD-1
T1 construct: also called monomeric recombinant human PD-1

[2] = target: T2, PD-L1 expressed on CHO-PD-L1 cells (UniProt Q9NZQ7 19-290, limits assumed); test: flow cytometry on CHO-PD-L1 cells
T2 construct: whole, on cells
Excerpt: (§1) This example illustrates in vitro data for cellular binding EC50 measurements and cell binding specificity. […] The experimental procedure was as follows: CHO-PD-1 cells and CHO-PD-L1 cells were obtained by stably transfecting CHO-K1 cells with PD-1 cDNA ORF clone (Origene RG210364) and PD-L1 cDNA ORF clone (Origene RG213071) respectively. After 2 weeks of Neomycin selection, clones were isolated by Fluorescence-activated cell sorting (FACS) and further expanded. […] For cell binding assays, 50,000 CHO-PD-1 cells, CHO-PD-L1 cells, and ES-2 cells were aliquoted into the wells of a 96-well, v-bottom plate in 100 μl FACS Buffer (PBS+2% FBS). A twelve point, 3× dilution curve of each anti-PD-1 antibody was made in FACS Buffer starting at 50 μg/ml (3.33×10⁻⁷M). Cells were spun down, washed twice with FACS Buffer, and then resuspended in 25 μl of antibody solution in triplicate. After 0.5 hr incubation, cells were washed 1× with FACS Buffer and resuspended in 50 μl PE-conjugated, goat anti-human IgG (γ-chain specific) secondary antibody (Southern Biotech Cat #2040-09). Cells were further incubated for 0.5 hr and then washed 1× with FACS Buffer. Cells were resuspended in 25 μl FACS Buffer and the median fluorescence intensity in the FL2-H channel was determined using the Intellicyt HTFC flow cytometer. Data was analyzed and plotted in Graph Pad Prism using non-linear regression fit.
(§2) Data points on the graph are shown as the median fluorescence intensity (MFI) of positively labeled cells depending on the antibody concentration +/− Std Error.

[3] = target: T3, recombinant cynomolgus PD-1 (cynomolgus); test: ELISA on recombinant cynomolgus PD-1
T3 construct: also called cyno PD-1

[4] = target: T4, human PD-1 expressed on cells (human, UniProt Q15116 25-288); test: flow cytometry on CHO-PD-1 cells
T4 construct: whole, on cells; One entry for cell-surface PD-1; also called CHO-PD-1 cells; Jurkat PD-1 cells
Excerpt: as §1, §2

[5] = target: T4, human PD-1 expressed on cells; test: flow cytometry on Jurkat T cells stably expressing human PD-1
Excerpt: Primary antibody binding to Jurkat PD-1 cells was detected by flow cytometry using either anti-heavy chain or light chain antibodies directly conjugated to fluorochromes (identical binding curves were obtained using either detection reagent).

[6] = target: T5, recombinant human PD1 (His-tagged) protein (human, UniProt Q15116 25-167, limits assumed); test: SPR, antibody captured on anti-human Fc, PD1/His as analyte, 1:1 Langmuir fit
T5 construct: not shown: His tag
Protocol: Anti-human Fc antibody was immobilized on CMS sensor chip with approximately 1000 RU. Antibodies (about 10 μg/ml) were captured for 60 s at a flow rate 10 μl/min.PD1/His was serially diluted in running buffer (HBS-EP). All measurements were conducted with a flow rate of 30 μL/min. Surfaces were regenerated with 3M MgCl₂ for 60 s. A 1:1 (Langmuir) binding model was used to fit the data.

recombinant mouse PD-1 = target: T6, recombinant mouse PD-1 (mouse, UniProt Q02242 25-167, limits assumed); test: ELISA, detection with anti-human IgG4 heavy chain or anti-human lambda light chain
T6 sequence (looked up): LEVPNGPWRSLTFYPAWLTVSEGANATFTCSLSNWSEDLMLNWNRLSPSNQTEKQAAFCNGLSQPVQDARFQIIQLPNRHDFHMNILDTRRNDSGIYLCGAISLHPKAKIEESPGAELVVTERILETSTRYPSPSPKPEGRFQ

[7] = target: T1, recombinant human PD-1 protein; test: Biacore, antibody captured on protein A, monomeric recombinant human PD-1 as analyte
[8] = target: human CTLA-4 (recombinant) (human, UniProt P16410 36-161, limits assumed); test: ELISA on coated recombinant protein, one antibody concentration (not given)
human CD28 (recombinant) = human CD28 (recombinant) (human, UniProt P10747 19-152); test: as above
human ICOS (recombinant) = target: T7, human ICOS (recombinant) (human, UniProt Q9Y6W8 21-140, limits assumed); test: as above
T7 sequence (looked up): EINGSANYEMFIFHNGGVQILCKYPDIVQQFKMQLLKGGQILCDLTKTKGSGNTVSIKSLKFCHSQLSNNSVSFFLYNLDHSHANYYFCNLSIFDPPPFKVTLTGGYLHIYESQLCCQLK

[9] = target: T4, human PD-1 expressed on cells; test: flow cytometry on anti-CD3-activated PBMC
Protocol: (§3) This example illustrates in vitro data for cellular binding EC50 measurements. […] The experimental procedure is as follows. Peripheral blood mononuclear cells (PBMC) were added to the wells of a 24 well plate and stimulated anti-CD3 (3 ng/ml). After three days of culture the cells were harvested and added to the wells of wells of a 96-well, v-bottom plate in 100 μl FACS Buffer (PBS+2% FBS). A twelve point, 3× dilution curve of each anti-PD-1 antibody was made in FACS Buffer starting at 10 μg/ml (0.6×10⁻⁷M). Cells were spun down, washed twice with FACS Buffer, and then resuspended in 25 μl of antibody solution in triplicate. After 0.5 hr incubation, cells were washed 1× with FACS Buffer and resuspended in 50 μl PE-conjugated, goat anti-human IgG (γ-chain specific) secondary antibody (Southern Biotech Cat #2040-09). Cells were further incubated for 0.5 hr and then washed 1× with FACS Buffer. Cells were resuspended in 25 μl FACS Buffer and the median fluorescence intensity in the FL2-H channel was determined using the Intellicyt HTFC flow cytometer. Data was analyzed and plotted in Graph Pad Prism using non-linear regression fit.

[10] = target: T4, human PD-1 expressed on cells; test: flow cytometry on anti-CD3-activated PBMC; remark: listed apart in the source
Protocol: as §3

[11] = target: T5, recombinant human PD1 (His-tagged) …; test: BIAcore, mAb captured on anti-human Fc, His-tagged human PD1 as analyte

T4 sequence (Q15116 25-288): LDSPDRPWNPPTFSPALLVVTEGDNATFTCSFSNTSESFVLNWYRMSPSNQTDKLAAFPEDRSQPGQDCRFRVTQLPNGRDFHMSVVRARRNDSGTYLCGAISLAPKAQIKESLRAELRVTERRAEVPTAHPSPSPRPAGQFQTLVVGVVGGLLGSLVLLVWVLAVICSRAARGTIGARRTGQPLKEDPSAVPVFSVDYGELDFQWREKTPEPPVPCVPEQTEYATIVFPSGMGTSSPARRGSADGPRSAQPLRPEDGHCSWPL
T2 sequence (Q9NZQ7 19-290 limits assumed): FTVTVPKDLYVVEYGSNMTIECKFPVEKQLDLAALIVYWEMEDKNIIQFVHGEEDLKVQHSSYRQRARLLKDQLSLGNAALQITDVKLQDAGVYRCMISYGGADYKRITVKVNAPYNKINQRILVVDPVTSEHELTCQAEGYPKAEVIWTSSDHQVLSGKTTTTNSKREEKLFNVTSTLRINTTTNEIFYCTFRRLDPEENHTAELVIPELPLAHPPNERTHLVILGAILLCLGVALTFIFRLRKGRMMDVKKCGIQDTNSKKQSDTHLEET
T5 sequence (Q15116 25-167 limits assumed): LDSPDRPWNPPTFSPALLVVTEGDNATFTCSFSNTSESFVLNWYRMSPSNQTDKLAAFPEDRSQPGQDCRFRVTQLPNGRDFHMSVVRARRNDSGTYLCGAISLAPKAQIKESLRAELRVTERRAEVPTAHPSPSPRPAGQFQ
T1 sequence (Q15116 25-167 limits assumed): as above
Sequence of human CTLA-4 (recombinant) (P16410 36-161 limits assumed): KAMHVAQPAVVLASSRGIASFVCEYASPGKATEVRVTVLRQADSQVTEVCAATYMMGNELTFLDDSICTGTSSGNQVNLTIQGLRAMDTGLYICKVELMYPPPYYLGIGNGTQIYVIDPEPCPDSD

B3: RG1H10 (IgG1) (antibody, V domains shown)
VH: QVQLVQSGSELKKPGASVKISCKASGYIFSDNGVNWVRQAPGQGLEWMGWINTKIGNPTYAQGFTGRFVFSLDTSISTTYLQISSLQAGDTAVYYCAREHDYYYGMDVWGQGTTVTVSS
VL: QSALTQPPSASGSPGQSVTISCTGTSSDVGGYNYVSWYQHHPGKAPKLMIYEVSKRPSGVPDRFSGSKSAITASLTISGLLTEDEADYYCSAWDDSLNADVFGGGTKVTVL
notes: IgG1; also called RG1H10 as immunoglobulin gamma 1
EC50 [9]: 0.67 nM
EC50 [10]: 0.67 nM
Kd [11]: 1.3 nM
koff [11]: 0.001 s⁻¹
kon [11]: 750000 M⁻¹ s⁻¹

B4: RG1H10 (IgG4 S228P) (antibody, V domains shown)
VH: QVQLVQSGSELKKPGASVKISCKASGYIFSDNGVNWVRQAPGQGLEWMGWINTKIGNPTYAQGFTGRFVFSLDTSISTTYLQISSLQAGDTAVYYCAREHDYYYGMDVWGQGTTVTVSS
VL: QSALTQPPSASGSPGQSVTISCTGTSSDVGGYNYVSWYQHHPGKAPKLMIYEVSKRPSGVPDRFSGSKSAITASLTISGLLTEDEADYYCSAWDDSLNADVFGGGTKVTVL
notes: also called RG1H10 as immunoglobulin gamma 4 with hinge mutation S228P
EC50 [9]: 0.047 nM
EC50 [10]: 0.047 nM
Kd [11]: 1.6 nM
koff [11]: 0.0014 s⁻¹
kon [11]: 880000 M⁻¹ s⁻¹

B6: H7 (IgG) (antibody, V domains shown)
VH: QVQLVQSGSELKKPGASVKISCKASGYIFSDNGVNWVRQAPGQGLEWMGWINTKIGNPTYAQGFTGRFVFSLDTSVSTTYLQISSLQAGDTAVYYCAREHDYYYGMDVWGQGTTVTVSS
VL: QSVLTQPASVSGSPGQSVTISCTGSSSDVGAYNFVSWYRQYPGKAPKLLIYEVNKRPSDVPDRFSGSKFGNTASLTVSGLQADDEADYYCSSYAGSTDVFGTGTKVTVL
notes: Detected with anti-human IgG (gamma chain specific); also called PD1 H7
binding result [2]: no binding (tested: 50 µg/ml (3.33×10^-7M) top concentration)
EC50 [4]: 0.223 nM

B7: RG4A6 (IgG) (antibody, V domains shown)
VH: EVQLVESGGGLVQPGGSLRLSCAASGFTFSSYWMHWVRQAPGKGLEWVSSISSSSSYIYYADSVKGRFTISRDNAKNSLYLQMNSLRAEDTAVYYCARDTLEYYGSGILENAMGYYGMDVWGQGTTVTVSS
VL: not shown
notes: Detected with anti-human IgG (gamma chain specific); also called PD1 RG4A6
binding result [2]: no binding (tested: 50 µg/ml (3.33×10^-7M) top concentration)
EC50 [4]: 0.779 nM

B9: RG2H10 (IgG) (antibody, V domains shown)
VH: QVQLQQSGPGLVRPSQTLSLSCDISGDSVSSNSATWNWIRQSPSRGLEWLGRTFYRSKWYHDYALSVKSRITINPDTSKNQFSLQLNSVSPGDTAVYFCVREDIDGRLDYWGQGTLVTVSS
VL: QPVLTQPASVSGSPGQSITISCTGTSSDVGGYNYVSWYQQHPGKAPKLMIYDVSNRPSGVSNRFSGSKSGNTASLAITGLQSDDDADYYCSAWDDSLNADVFGGGTKLTVL
notes: Detected with anti-human IgG (gamma chain specific); also called PD1 RG2H10
binding result [2]: no binding (tested: 50 µg/ml (3.33×10^-7M) top concentration)
EC50 [4]: 2.8 nM

Further lines, with some results ahead:

EC50 [1]: 0.391 nM
EC50 [3]: 0.84 nM
EC50 [4]: 0.0358 nM
EC50 [5]: 25.8 nM
fold maximal binding against competitor 1 [5]: ~2 fold lower
Ka [6]: 1.25e+09 M⁻¹
Kd [6]: 0.802 nM
koff [6]: 0.00104 s⁻¹
kon [6]: 1.3e+06 M⁻¹ s⁻¹
binding result (recombinant mouse PD-1): no binding
Kd [7]: 3.2 nM
fold affinity against competitor 3 [7]: ~10 fold
binding result [8]: no binding
binding result (human CD28 (recombinant)): no binding
binding result (human ICOS (recombinant)): no binding
B1: anti-PD-1 antibody RG1H10 (IgG, isotype not stated in the assay) (antibody, V domains shown)
VH: QVQLVQSGSELKKPGASVKISCKASGYIFSDNGVNWVRQAPGQGLEWMGWINTKIGNPTYAQGFTGRFVFSLDTSISTTYLQISSLQAGDTAVYYCAREHDYYYGMDVWGQGTTVTVSS
VL: QSALTQPPSASGSPGQSVTISCTGTSSDVGGYNYVSWYQHHPGKAPKLMIYEVSKRPSGVPDRFSGSKSAITASLTISGLLTEDEADYYCSAWDDSLNADVFGGGTKVTVL
notes: also called PD1 RG1H10
binding result [2]: no binding (tested: 50 µg/ml (3.33×10^-7M) top concentration)

EC50 [4]: 0.202 nM
B2: GA2 (IgG) (antibody, V domains shown)
VH: QVQLVQSGSELKKPGASVKISCKASGYIFSDNGVNWVRQAPGQGLEWMGWINTKIGNPTYAQGFTGRFVFSLDTSVSTTYLQISSLQAGDTAVYYCAREHDYYYGMDVWGQGTTVTVSS
VL: QPVLTQPPSASGTPGQRVTISCSGSSSNIGTNTVNWYQQVPGTAPKLLIHGNDQRPSGVPDRFSGSKSDTSASLAITGLQSDDDADYYCSAWDDSLNADVFGGGTKLTVL
notes: Detected with anti-human IgG (gamma chain specific); also called PD1 GA2
binding result [2]: no binding (tested: 50 µg/ml (3.33×10^-7M) top concentration)

EC50 [4]: 0.115 nM
B5: SH-A4 (IgG) (antibody, V domains shown)
VH: QVQLVQSGSELKKPGASVKISCKASGYIFSDNGVNWVRQAPGQGLEWMGWINTKIGNPTYAQGFTGRFVFSLDTSVSTTYLQISSLQAGDTAVYYCAREHDYYYGMDVWGQGTTVTVSS
VL: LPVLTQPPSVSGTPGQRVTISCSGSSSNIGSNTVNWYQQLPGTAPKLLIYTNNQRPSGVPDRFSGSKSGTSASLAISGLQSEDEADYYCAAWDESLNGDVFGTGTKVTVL
notes: Detected with anti-human IgG (gamma chain specific); also called PD1 SHA4
binding result [2]: no binding (tested: 50 µg/ml (3.33×10^-7M) top concentration)

EC50 [4]: 0.183 nM
B8: RG1B3 (IgG) (antibody, V domains shown)
VH: QVQLVQSGAEVKKPGASVKVSCKASGYTFTSYGISWVRQAPGQGLEWMGWISAYNGNTNYAQKLQGRVTMTTDTSTSTAYMELRSLRSDDTAVYYCARGLYGDEDYWGQGTLVTVSS
VL: LPVLTQPPSVSEVPGQRVTISCSGGISNIGSNAVNWYQHFPGKAPKLLIYYNDLLPSGVSDRFSASKSGTSASLAISGLRSEDEADYYCAAWDDNLSAYVFATGTKVTVL
notes: Detected with anti-human IgG (gamma chain specific); also called PD1 RG1B3
binding result [2]: no binding (tested: 50 µg/ml (3.33×10^-7M) top concentration)

— patent US20170313776A1 (SORRENTO THERAPEUTICS, published 2017)
